In the DeepSol protein solubility set:

test: soluble on expression in E. coli; label from the status in PepcDB or PDB records

Sequence | soluble on expression in E. coli
MAGDIILRVEDLEKRFGGIVALDKVNLEIERGKVTLLIGPNGSGKTTLVNVISGFYKPDGGRVLFKGRDITGMSPHEISKLGLVRTFQIPKPFTNLTVLENVLTAADSPGENVYLAGLARRLWLGFEKRAAARAFEILGWVGLDHMWDRRSGELSGGQMKLLEIARAIMKGAEMIIMDEPAAGVNPRLAGSIMERIKYLAREKGITFLIIEHRIGLVKEYVDRVYAMSMGKVIASGKPDEVLNNPVVLESYLGG | soluble
MSLRILIVDDEKLTRDGLIANINWKALSFDQIDQADDGINAIQIALKHPPNVLLTDVRMPRMDGIELVDNILKLYPDCSVIFMSGYSDKEYLKAAIKFRAIRYVEKPIDPSEIMDALKQSIQTVLQHQAQQDSEGHHHHHH | soluble
MAAFSQLYDLHINILFNYGLKLTIDKELLKDCIHDIFVKLYTKKDELGTIDNLKSYLFISLKNKLCDELRKRMYMSDTAIEDVNAVAPTDVEDDYMEEEQRKNEFSLVKRLLDQLSPRQREALTLYYIEEKKYEDICEIMNMNYQSVRNLMHRGLTKLRSLAS | not soluble
MSLSHSEKDVHEMGRFLLSTIKGSILELAFSHGEVEGLSFEKKVTILEIEDLDLPTDRHDELDENQRLSVTLMFALGTFCSKFGSRNRKEETVTFFDEAWIFQSSPEGQKILKSMKRIGRSFNNFMVLITQSVNDVLDNGDGTGFGTVVCFDEVDNREGILRYLKLPVNEINLKWVSNMIQGQCLMKDMFNQVNRIVIDVIFEEWLELFETVDEGHHHHHH | not soluble
MGSDKIHHHHHHMNILVIGANGGVGSLLVQQLAKENVPFTAGVRQSDQLNALKSQGMKAILVDVENDSIETLTETFKPFDKVIFSVGSGGNTGADKTIIVDLDGAVKSMIASKEANIKHYVMVSTYDSRRQAFDDSGDLKPYTIAKHYADDYLRRSGLNYTILHPGALTNAAGSGKIEAAQYFDGKGEIPREDVATVLKEIVTSNHFNHQEFQIISGEQDIKDALTQFEIEKD | not soluble
MQEKIYQVAVGLIPGVGAATTKTLISYCGCAEQIFKTPKGKLKNIPGIGAVTVDNIYSASVLHEAESIVERAQKLDTQLLFYTDPDYPNRLKQIPDAPTLLYYKGSSALNPPKSIAIVGTRKATEYGRSVVRKLLEEIASYKPLVVSGLAYGIDIQAHRDALELGLETIGVMANGTNIIYPSVHKNTALKMLEQGGLLSEYTFDSIAEPMRFPARNRIIAGMTDATIVIEATQSGGALITAEIADSYDREVLAVPGRITDMASEGCNNLIKQNKAHALTSAADLIELLNWDITPSQQAHKHIILADLEEDELMIYAVLTDNEGIHIDELSWKSQLSMQKISSVLLEMEFKGIVKALPGKKFSLR | not soluble
MGNYFPYAFEDKRYHTWNYHLKNKFGQKIFKVALDGGFDCPNRDGTVAHGGCTFCSAAGSGDFAGNRAEPIEVQFKKIKERMHEKWSEGQYIAYFQAFTNTHAPVEVLKEKYEPVLKEDGVVGLSIATRPDCLPDDVVEYLAELNQRTYLWVELGLQTVHQSTSDLINRAHDMQTYYDGVTKLRKHNINVCTHIINGLPGENYDMMMETAKEVAQMDVQGIKIHLLHLLKGTPMVKQYEKGMLEFMSQQDYTNLVCDQLEVLPPEMIVHRITGDGPIDLMVGPMWSVNKWEVLNEIDNELARRNSYQGKMNKQSIQS | not soluble
MGSDKIHHHHHHMDNYEGSDPWNTSSNAWTKDDDHVVSTTNSEPSLNGISGEFNTLNFSTPLDTNEEDTGFLPTNDVLEESIWDDSRNPLGATGMSQTPNIAANETVIDKNDARDQNIEESEADLLDWTNNVRKTYRPLDADIIIIEEIPEREGLLFKHANYLVKHLIALPSTSPSEERTVVRRYSDFLWLREILLKRYPFRMIPELPPKRIGSQNADQLFLKKRRIGLSRFINLVMKHPKLSNDDLVLTFLTVRTDLTSWRKQATYDTSNEFADKKISQEFMKMWKKEFAEQWNQAASCIDTSMELWYRITLLLERHEKRIMQMVHERNFFETLVDNFSEVTPKLYPVQQNDTILDINNNLSIIKKHLETTSSICKQETEEISGTLSPKFKIFTDILLSLRSLFERYKIMAANNVVELQRHVELNKEKLESMKGKPDVSGAEYDRIKKIIQKDRRSIIEQSNRAWLIRQCILEEFTIFQETQFLITRAFQDWAKLNSNHAGLKLNEWEKLVTSIMDMPISRE | not soluble
GFVGRFGASSATTDRSKIFTADFRDFETSFSFQPGVFWGYDDFLSSALLLDIGYNKDKYELKYTVNGGRLLENYDFNSISFGLFPRLNISFVSIGVGGGIKIPLSLKYSKEGDAYSYNKYSLDFGDIKDSFETFYIPYVKVSLDFLIKTKGKFMMSLGVYANYDFPININRNGLLKDISIDKESIAAFDIGFQIGAYLVNR | not soluble
MSLFYEEVFSDLKEEEKALLEFISSGNLEIDRKLEGGVPVGSLCLLEGGNDSGKSIFLQQIMWGALNQDKRVLALATEKTSKELLNQMESLKHGISDYFIIGRAKIFEINAGYVEENPQLSESLLQVLLECIKRCKEELILIDSLTIFAVNASENAVLNFFTECVKLCDNGKTILISVHGYAFSQSVLYRLRSVCSVCLELRIEQVGDQWIKTMEIQKLRGARKTRGNLLSFDVDSKFGLKIIPVSKVKAEGHHHHHH | soluble
SLDKIEHIGIAVKNLEAGNSLYEKLMGVPHYKIEEVASEGVRTSFFKTGPNKIELLEATNDDSAIAKFIEKKGEGIHHIAFAVENIVEEMERLKKEGFIILNEKPKKGADNKLVAFVHPKTAGGVLIELCQEINEG | soluble
MPNPFSKGWKYLTASLDNKIEENADPVIQIKQAAEAAKKQHADIEQQAASVIGNRNQLQMKLNRLLKDQQSIQEKARQALSLSDSATDPAEQHKYLNAAEVYASQLVGVESEIEQTTTLHQQAEQAAEQATQQVKQSEARLHEQLSQINELTTQAQQAKMQEAAVAASDQINSIDPDRDVPTMDSIREKIERRYADALGSQELMQSSMNERIHEIEATTSERDMRANAKLDAIRAQMRGELPAGSEETEPPADK | not soluble
GFRKMAFPSGKVEGCMVQVTCGTTTLNGLWLDDTVYCPRHVICTAEDMLNPNYEDLLIRKSNHSFLVQAGNVQLRVIGHSMQNCLLRLKVDTSNPKTPKYKFVRIQPGQTFSVLACYNGSPSGVYQCAMRPNHTIKGSFLNGSCGSVGFNIDYDCVSFCYMHHMELPTGVHAGTDLEGKFYGPFVDRQTAQAAGTDTTITLNVLAWLYAAVINGDRWFLNRFTTTLNDFNLVAMKYNYEPLTQDHVDILGPLSAQTGIAVLDMCAALKELLQNGMNGRTILGSTILEDEFTPFDVVRQCSGVTHHHHHH | soluble
MSEMTKTPTHYRLLSTLKAMGPYLREGQCSERFYLFDCLASCVNDKKSPEKREFWGWWMELTQNEQEMSACYHIGRYTLAGDWVAEAIPESAQAEVNHTQAEFHKKLVKTLRERFEISVTVSTESAPFA | not soluble
MGSDKIHHHHHHMKSRLKKSHRLIRLISNIKSEPYLTVEQLVKIHRISRAQFYKDKAALAELGFEFSWDRRRRRFVISRVAYCPVENLTLSERWALLMAARQLSASGDYSLSFEVLNAARKLAAGLSDPIRETAVSLFNDLVLREGYGCRKEVMNKISMAIFEKRRIILTYKKPLDSQPEREELDPYHLFFQDRSLYVEGYACLRRDVRMFRLNRIRDIAFTPIRFSIPDDYDFGKRYRNAFSVFGGTTTQRVVVRFTAHIRPYIEETLWHHSQVVTIENGGFIRFEVQVAEPREVLWWAFRWGAGAEILEPAWLREKAKCEVEKMAGMYGRGSGSG | not soluble
MLLTGKLYKEEKQKFYDAQNGKCLICQRELNPDVQANHLDHDHELNGPKAGKVRGLLCNLCDAAEGQMKHKFNRSGLKGQGVDYLEWLENLLTYLKSDYTQNNIHPNFVGDKSKEFSRLGKEEMMAEMLQRGFEYNESDTKTQLIASFKKQLRKSLK | soluble
GMHTDVNALFAALWQDYIKMTPSAAKIHQLLGHGAPIINDHIALRTFNIAKVNLSVLAKHFTSIGYVDSGDYKFEQKKLIAKHFEHPDPKQPKVFISELLVEEFSPEVQKSIHGLIDQVDIAATTADNFIYSGRHWDVDKATYQALLAESEYAAWVAALGYRANHFTVSINDLPEFERIEDVNQALKQAGFVLNSSGGEVKGSPEVLLEQSSTMADKVVVNFTDGDVEIPSCFYEFARRYPMANGQLYTGFVAASADKIFESTNAMM | soluble
PIPAWASGNLLTQAIRQQYYKPIDVDRMYGTIDSPKLEELFNKS | soluble
MGSDKIHHHHHHMVATLAEQIKAEAIALGFDKVGIASVDPPDTEALAALDRWLAQGYQAEMDWMASDRRRDVRNLLPNAQSVICVALNYYSGDHPDPSPEVGKIARYAWGRDYHRVVEKRLKALARWLQTQQPDCECRWYVDSGPIADKVWAQRAGLGWIAKNSNVISREFGSWIFLGELVTTLALPADRPHTAHCGSCSRCLEACPTQAIVEPYVVDANRCIAYHTIENRAADLPAAIAQNLQGWVAGCDICQEVCPWNQRFAQITTLPDLQPRSELLAPALAELATLSEEAWDQQFQGSALRRIKPAMWRRNSRANLRQQSEGNRLS | not soluble
MATGAMSRSNDWTKSLSDAQPVPYWLDDPGRPRPEAALTGTETCDLLVVGGGYSGLWTALIAKERDPGRDVVLIEGREVGWAASGRNGGFCAASLTHGLSNGLTRWPDDIHRLEELGARNLDAIEAAVARHGLDCDFERTGEIDVATEPHQARELEEWYAEIRAQGLAEGVEYLDAEAVREQVDSPTFRAGLWDRRGVAMVNPAKLAWGLKRACLALGVRVHEHTPALTLKPYGAGMAVRTPYGAVRARTVALGTNVFPNLVRRVRPYTVPVYDYALMTEPLSDGQLASVGWQNRQGLGDSANQFHYFRLSRDNRILWGGYDAVYPYGGRVRAEYDHRPETYAKLAGHFFTCFPQLEGVRFTHAWGGAIDTCSRFSAFFGTAHRGRVAYAAGYTGLGVGATRFGAEVMLDLLSGERTERTELEMVRTKPLPFPPEPFAWTGIALTKWSLARADAHGGRRNLWLRTMDRLGLGFDSLEHHHHHH | not soluble
MDTNFKLSNCIGTVYRDGQVAFSKDGYSVISPIGNKLSIFDLRNNTSKTLDIDCNYNIKRLSISPSGYHLLASDERGVVHFVHLLSEFKIYTFRSNKPIGSLQWSPDATRVAICRENDLQIHEFGKSIENKVYNPFSLSRTYKLSSDSLKTIDWSDDANLLVSGGEDRVVRVVGAKDFKNLFIHPLASHKGYIVNCQFMKNSYDMITVCKRGLANVWTCNLRPGELVEGIWKKDEEGSDDIEMLEDGEQKVEKIFFEKTKKYWLSESSGSGKSVDVTAARFHKETNILATAFNNGVIVLHEIPSFALVHNLRVSEMRIQTVAWNLTGDWLAIGCGKGSTAQLVVWEWQSESYVMKQQAHSLRITTAEYSPDGSLMATGAEDGKVKIWNSRSSFCTVTFDEHTSGVTAVKWTQSGRAILSASLDGTVRAHDLKRYRNFRTLVCPEPTQLATLAVDKAGDLVIAGAKEVFNIYIWSFETGHLLDILSGHESAISSIDIHGNHIVSGSWDRTIKMWTIVDSQAETVEVSHEALDVKFSPAGDEIAVLTSDGVITFFEAKEMINLGSIDTKLDTDPARGSRDTITRQSAAKTKTFTRIRFSPDGNLLLAGGESNNFCLYSVPERMILKKWQITANRSLDGVILDFNRRNFTEFGNMQLVDTSDEEDELEPNNKMSIKLPGTKNFDLGERRARPEVNIYEVTYCPTGRRFAICSTEGVSVYSLDTISMFDPFQLDSQTNAEVIKRAVWNNDYSTAIMASLRLNNAQYITECLESTSISQIPLVASSLPLMYAERLLKWMVEGNVMSSTRHVHFYMIWLRAILQHHGMQLKGRADVATLTGIQQIVAHHQQHITKLANQNKFALNWLVKIRQSKKSVKKEEEEEEDVSDESDDEDIEDESAGSDDEDSDDSVEIIE | not soluble
